Measurements taken from patent US11890352B2, “Plectin-targeted liposomes/PARP inhibitor in the treatment of cancer” (University of Virginia Patent Foundation, priority 2018, dated 2024).
Where no end group is shown, it is not given here. Side-chain parts run from the residue outwards. The star is where a group is joined. DSPE = CCCCCCCCCCCCCCCCCC(=O)OC[C@H](COP(=O)(O)OCCN*)OC(=O)CCCCCCCCCCCCCCCCC; FAM = 5(6)-carboxyfluorescein

Experiments:
[1] = cited from earlier work
pancreatic cancer = settings: clinical study; cited from earlier work
[2] = unlabeled liposomes; cited from earlier work
[3] = target: T1, recombinant his-tagged C-terminus fragment of plectin (4379-4684 aa) (human, UniProt Q15149 4379-4684); assay: BLI (ForteBio Octet), his-tagged plectin C-terminus fragment loaded on anti-His sensors, liposomes in solution
T1 construct: range 4379-4684; also called his-tagged plectin fragment; c-terminus fragment of plectin (4379-4384 aa); not shown: his tag
T1 sequence (looked up): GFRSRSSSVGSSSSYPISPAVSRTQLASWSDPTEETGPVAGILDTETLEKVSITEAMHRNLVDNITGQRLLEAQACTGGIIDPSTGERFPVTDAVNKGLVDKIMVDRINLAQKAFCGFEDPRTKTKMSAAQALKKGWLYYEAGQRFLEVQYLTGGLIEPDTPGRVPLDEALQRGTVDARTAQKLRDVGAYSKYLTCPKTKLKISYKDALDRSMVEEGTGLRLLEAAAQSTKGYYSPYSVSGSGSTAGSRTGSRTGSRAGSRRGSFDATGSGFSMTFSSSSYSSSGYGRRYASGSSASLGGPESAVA
Description: Biolayer Interferometry (BLI) to Study PTP-Liposomes Binding to C-Terminus Fragment of Plectin Biolayer interferometry (BLI) was performed using ForteBio octect Red 96 system (ForteBio, Menlo Park, CA), we used recombinant C-terminus fragment of plectin (4379-4684 aa). All BLI assays were performed in black 96 well plates (Nunc F96 Micro Well plates, Thermo Fisher, Waltham, MA). The total working volume for samples or buffer was 0.2 mL per well and the rpm setting for each equilibration and loading steps was set at 1000 rpm. The association and dissociation step with C-terminus fragment of plectin and peptide-liposomes was carried out at 600 rpm. Prior to each assay, anti-his biosensor tips were pre-wetted in 0.2 mL PBS for at least 10 min followed by equilibrium with PBS for 100 seconds. Anti-his biosensors were then non-covalently loaded with his-tagged C-terminus fragment ([…]) (100 sec). Subsequently, association with No peptide, NCP (Negative Control Peptide) and PTP liposomes (40 mM) (300 sec) was be carried out. Finally, the dissociation was monitored in PBS for 600 sec.
Figure 2A: FIGS. 2A-B described plectin-targeted peptide (PTP) liposomes binding to Plectin. A) PTP peptide was conjugated to DSPE-PEG-MALEIMIDE via the thiol present on the C-terminus of the peptide. […]

[4] = target: T2, cell surface plectin on ovarian cancer cells (SKOV3, OVCAR8) (human, UniProt Q15149 1-4684); assay: cell binding assay on FT132 cells (healthy fallopian tube cells), DiR fluorescence at 780 nm, 1 h at 37 C
T2 construct: whole, on cells; Endogenous plectin mislocalized to the cell surface; also called Plectin-1
T2 sequence (Q15149 whole entry): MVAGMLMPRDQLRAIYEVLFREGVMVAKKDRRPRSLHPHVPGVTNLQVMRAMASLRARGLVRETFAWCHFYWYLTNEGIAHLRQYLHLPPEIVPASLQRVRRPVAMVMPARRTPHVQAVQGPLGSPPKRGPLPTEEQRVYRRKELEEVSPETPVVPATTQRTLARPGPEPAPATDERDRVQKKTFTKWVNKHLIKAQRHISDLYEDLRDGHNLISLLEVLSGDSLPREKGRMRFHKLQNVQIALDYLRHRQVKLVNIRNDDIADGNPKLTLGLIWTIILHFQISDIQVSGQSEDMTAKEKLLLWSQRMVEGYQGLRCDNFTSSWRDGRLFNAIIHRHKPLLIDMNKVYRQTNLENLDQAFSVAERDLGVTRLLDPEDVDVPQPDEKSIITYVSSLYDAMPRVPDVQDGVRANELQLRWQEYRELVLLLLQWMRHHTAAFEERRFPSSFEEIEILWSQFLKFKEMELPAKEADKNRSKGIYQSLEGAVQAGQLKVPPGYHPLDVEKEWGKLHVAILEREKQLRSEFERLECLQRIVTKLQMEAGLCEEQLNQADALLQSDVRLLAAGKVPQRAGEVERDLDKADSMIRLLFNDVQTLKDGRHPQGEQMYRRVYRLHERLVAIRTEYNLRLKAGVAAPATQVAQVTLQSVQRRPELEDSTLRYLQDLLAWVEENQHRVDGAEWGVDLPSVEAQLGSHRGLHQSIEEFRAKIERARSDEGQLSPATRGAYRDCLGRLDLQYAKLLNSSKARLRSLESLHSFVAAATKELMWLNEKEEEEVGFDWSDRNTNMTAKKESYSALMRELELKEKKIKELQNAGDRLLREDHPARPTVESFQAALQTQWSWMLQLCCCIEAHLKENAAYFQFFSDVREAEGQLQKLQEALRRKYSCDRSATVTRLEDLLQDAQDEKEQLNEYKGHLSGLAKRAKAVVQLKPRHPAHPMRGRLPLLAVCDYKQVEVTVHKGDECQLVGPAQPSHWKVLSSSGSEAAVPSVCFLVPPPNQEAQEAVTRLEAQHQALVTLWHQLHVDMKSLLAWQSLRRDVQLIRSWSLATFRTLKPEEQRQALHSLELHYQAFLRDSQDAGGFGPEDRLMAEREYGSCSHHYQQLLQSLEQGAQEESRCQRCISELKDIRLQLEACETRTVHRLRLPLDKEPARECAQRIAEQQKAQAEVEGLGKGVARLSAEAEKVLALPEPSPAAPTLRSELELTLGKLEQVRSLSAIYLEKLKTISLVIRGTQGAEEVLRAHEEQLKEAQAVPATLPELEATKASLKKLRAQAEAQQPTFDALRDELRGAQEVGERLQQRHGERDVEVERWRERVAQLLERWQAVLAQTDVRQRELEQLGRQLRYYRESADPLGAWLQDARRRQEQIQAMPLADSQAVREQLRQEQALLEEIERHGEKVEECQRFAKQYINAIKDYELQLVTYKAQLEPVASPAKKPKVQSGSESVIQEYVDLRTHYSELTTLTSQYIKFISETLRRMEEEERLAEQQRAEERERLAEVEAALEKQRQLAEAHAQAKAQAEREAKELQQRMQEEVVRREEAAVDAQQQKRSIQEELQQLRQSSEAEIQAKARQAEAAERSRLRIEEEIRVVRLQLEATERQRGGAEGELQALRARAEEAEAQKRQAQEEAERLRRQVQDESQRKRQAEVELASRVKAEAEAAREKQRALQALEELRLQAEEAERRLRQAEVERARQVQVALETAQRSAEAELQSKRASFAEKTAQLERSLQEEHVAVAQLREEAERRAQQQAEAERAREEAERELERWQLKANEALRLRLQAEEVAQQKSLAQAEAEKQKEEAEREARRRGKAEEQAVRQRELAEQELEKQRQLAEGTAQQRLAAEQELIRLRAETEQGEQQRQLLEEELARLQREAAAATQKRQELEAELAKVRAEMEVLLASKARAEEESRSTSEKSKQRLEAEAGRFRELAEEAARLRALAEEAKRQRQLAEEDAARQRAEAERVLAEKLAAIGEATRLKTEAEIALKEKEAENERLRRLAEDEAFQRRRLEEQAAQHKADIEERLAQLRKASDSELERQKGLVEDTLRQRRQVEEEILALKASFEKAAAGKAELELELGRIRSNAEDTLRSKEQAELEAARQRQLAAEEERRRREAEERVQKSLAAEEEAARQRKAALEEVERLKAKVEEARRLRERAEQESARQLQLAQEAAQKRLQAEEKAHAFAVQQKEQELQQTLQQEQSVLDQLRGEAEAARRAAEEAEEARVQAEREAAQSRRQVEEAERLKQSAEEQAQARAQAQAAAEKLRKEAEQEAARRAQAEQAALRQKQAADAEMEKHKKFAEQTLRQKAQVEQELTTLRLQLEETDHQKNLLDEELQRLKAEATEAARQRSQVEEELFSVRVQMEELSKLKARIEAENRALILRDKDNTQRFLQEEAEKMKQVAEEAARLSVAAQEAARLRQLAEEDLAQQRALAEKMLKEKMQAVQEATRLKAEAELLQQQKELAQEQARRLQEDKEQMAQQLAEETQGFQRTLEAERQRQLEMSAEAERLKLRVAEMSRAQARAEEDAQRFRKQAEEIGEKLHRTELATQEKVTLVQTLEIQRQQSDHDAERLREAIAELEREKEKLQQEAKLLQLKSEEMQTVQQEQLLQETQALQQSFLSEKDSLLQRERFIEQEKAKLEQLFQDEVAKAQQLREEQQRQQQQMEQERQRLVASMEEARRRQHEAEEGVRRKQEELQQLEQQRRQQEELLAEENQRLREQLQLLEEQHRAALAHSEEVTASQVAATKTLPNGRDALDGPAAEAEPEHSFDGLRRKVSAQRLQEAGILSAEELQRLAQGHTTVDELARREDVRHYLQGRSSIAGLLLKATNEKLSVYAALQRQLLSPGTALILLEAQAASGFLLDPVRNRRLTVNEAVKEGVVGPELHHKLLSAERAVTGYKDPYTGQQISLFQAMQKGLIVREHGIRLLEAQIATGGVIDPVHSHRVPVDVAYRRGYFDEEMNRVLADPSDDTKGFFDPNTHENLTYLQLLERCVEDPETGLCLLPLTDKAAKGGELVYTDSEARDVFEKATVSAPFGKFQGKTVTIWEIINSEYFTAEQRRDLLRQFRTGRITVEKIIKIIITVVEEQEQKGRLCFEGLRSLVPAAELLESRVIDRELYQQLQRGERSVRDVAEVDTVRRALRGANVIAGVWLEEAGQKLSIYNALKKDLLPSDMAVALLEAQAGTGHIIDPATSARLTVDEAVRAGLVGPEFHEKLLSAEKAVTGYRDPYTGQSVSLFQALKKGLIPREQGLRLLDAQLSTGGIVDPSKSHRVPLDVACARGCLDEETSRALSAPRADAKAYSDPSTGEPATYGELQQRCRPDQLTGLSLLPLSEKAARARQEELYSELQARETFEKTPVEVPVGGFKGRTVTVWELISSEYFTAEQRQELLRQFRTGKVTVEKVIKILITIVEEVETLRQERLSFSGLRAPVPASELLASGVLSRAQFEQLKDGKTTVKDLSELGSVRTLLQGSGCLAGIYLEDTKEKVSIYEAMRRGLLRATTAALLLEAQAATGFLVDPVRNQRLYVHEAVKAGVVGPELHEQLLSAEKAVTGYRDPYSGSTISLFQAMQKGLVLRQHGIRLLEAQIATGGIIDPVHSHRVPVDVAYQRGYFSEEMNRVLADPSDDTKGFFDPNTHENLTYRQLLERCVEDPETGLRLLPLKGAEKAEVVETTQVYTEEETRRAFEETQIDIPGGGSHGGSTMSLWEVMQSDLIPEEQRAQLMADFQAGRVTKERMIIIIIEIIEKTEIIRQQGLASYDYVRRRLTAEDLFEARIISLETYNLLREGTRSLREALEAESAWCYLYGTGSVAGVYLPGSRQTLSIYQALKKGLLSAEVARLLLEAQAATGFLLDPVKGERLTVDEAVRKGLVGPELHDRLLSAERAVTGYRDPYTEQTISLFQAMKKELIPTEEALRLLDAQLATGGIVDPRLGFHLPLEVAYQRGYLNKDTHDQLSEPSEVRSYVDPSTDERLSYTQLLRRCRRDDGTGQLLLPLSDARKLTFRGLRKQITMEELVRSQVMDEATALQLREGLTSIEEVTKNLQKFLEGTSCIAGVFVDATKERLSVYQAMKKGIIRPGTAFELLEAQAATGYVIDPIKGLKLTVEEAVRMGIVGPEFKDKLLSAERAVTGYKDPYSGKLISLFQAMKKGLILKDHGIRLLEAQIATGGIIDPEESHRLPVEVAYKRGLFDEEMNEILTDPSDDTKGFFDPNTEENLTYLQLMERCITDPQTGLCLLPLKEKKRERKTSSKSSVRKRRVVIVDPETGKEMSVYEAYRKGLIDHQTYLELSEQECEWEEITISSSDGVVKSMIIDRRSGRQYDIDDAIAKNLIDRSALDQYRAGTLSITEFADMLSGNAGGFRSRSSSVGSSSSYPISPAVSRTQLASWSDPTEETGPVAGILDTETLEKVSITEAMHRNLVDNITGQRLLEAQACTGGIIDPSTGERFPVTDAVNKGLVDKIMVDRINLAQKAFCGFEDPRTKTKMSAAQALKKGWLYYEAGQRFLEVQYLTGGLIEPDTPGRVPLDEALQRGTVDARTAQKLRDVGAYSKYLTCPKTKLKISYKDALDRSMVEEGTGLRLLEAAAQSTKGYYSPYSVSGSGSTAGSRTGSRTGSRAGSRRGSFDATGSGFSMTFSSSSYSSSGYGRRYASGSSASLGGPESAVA
Description: (§1) FT 132, SKOV3 and OVCAR8 cells were plated in triplicate in a 96 well black plate at a concentration of 5000 cells per well. After 48 h, liposomes at concentrations ranging from […] were incubated with the three cell lines after washing the wells with PBS buffer for 1 h at 37° C. The cells were later washed with PBS and liposomal DiR intensity was measured using a fluorescent plate reader (FLUOstar omega, BMG Labtech Inc. Cary, NC). PTP liposomal binding to the three cell lines was compared with liposomes containing no peptide (background binding) and with NCP (non-specific binding). Background binding by the no peptide liposomes was subtracted from both the non-specific (NCP) and PTP liposomes. To obtain specific binding of PTP liposomes, we subtracted non-specific (NCP) binding from the total binding by the PTP liposomes.
(§2) Figure 2B: Figure 3A: FIGS. 3A-C. PTP liposomes bind to SKOV3 and OVCAR8 cells. Cell binding assay (ELISA) was carried out to assess PTP liposome association to cell surface plectin on SKOV3 and OVCAR8 cells. Liposomes (No Pep, NCP and PTP) at varying concentrations were incubated with FT132, SKOV3 and OVCAR8 cells for 1 h at 37° C. […] NCP binding was subtracted from PTP liposomes to determine specific binding of PTP liposomes to A) FT132, B) SKOV3 and C) OVCAR8 cells for 1 h at 37° C. followed by quantification of DiR using fluorescent plate reader.

[5] = target: T2, cell surface plectin on ovarian cancer …; assay: cell binding assay on OVCAR8 cells; DiR fluorescence; NCP and no-peptide liposome binding subtracted; OVCAR8 cells
Description: as §1, §2

[6] = target: T2, cell surface plectin on ovarian cancer …; assay: cell binding assay on FT132 cells (healthy fallopian tube cells), DiR fluorescence at 780 nm, 1 h at 37 C; fit of the SPECIFIC curve; no unit beside the number, concentration axis in nM
Description: as §1, §2

[7] = target: T2, cell surface plectin on ovarian cancer …; assay: cell binding assay on SKOV3 cells; DiR fluorescence; NCP and no-peptide liposome binding subtracted; SKOV3 cells
Description: as §1, §2

Molecule: O=C(c1cc(Cc2n[nH]c(=O)c3ccccc23)ccc1F)N1CCN(C(=O)C2CC2)CC1 [Olaparib]
- patients who developed myelodysplastic syndrome and acute myeloid leukemia [1]: About 2%
- patients with adverse side effects (neutropenia, thrombocytopenia) ([1]; doses necessary to achieve PARP inhibition): About 10%

Molecule: CNCc1ccc(-c2[nH]c3cc(F)cc4c3c2CCNC4=O)cc1 [Rucaparib]
- patients showing benefit (pancreatic cancer): 36%

Molecule: COc1cccc2c1C(=O)c1c(O)c3c(c(O)c1C2=O)C[C@@](O)(C(=O)CO)C[C@@H]3O[C@H]1C[C@H](N)[C@H](O)[C@H](C)O1 [doxorubicin]
- drug loading previously reported [2]: 200 μg drug per mg of lipid

B1: NCP liposomes (Negative Control Peptide TALPRLNGGSK(FAM)C conjugated to DSPE-PEG3400-Maleimide and displayed on liposomes) (peptide)
peptide: TALPRLNGGSK(FAM)C([maleimide-PEG3400-DSPE])-NH2
modifications: also: displayed on liposomes
notes: Control peptide, tested only as a display on liposomes
- binding result [3]: no binding
- binding result [4]: no binding (tested: 0.3 nM)

B2: PTP liposomes (Plectin Targeting Peptide KTLLPTPGGSK(FAM)C conjugated to DSPE-PEG3400-Maleimide and displayed on DOPC/cholesterol/DSPE-PEG2000/DiR liposomes) (peptide)
peptide: KTLLPTPGGSK(FAM)C([maleimide-PEG3400-DSPE])-NH2
modifications: also: displayed on liposomes
notes: Tested only as a multivalent display on liposomes (about 110-120 nm), not as free peptide; also called Plectin Targeted Peptide; PTP-PEG3400-DSPE
- Kd [5]: 0.11 nM
- Kd [6]: 0.06 nM
- Kd [7]: 0.12 nM
